Publication PMC314469, “Protein Interaction Networks by Proteome Peptide Scanning” (PLoS Biology, 2004)

T1: Yfr024 SH3 (LSB3_YEAST), P43603
T1 chain: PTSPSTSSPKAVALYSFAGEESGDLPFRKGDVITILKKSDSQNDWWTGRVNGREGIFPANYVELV

T2: Boi2 SH3 (BOI2_YEAST), P39969
T2 chain: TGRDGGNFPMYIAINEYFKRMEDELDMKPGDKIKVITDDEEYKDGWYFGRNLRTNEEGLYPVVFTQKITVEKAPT

T3: Rvs167 SH3 (RV167_YEAST), P39743
T3 chain: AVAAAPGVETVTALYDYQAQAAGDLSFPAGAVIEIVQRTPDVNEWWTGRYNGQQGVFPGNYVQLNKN

T4: Yhr016c SH3 (YSC84_YEAST), P32793
T4 chain: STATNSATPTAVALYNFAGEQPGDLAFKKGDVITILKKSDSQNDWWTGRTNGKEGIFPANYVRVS

T5: Boi1 SH3 (BOI1_YEAST), P38041
T5 chain: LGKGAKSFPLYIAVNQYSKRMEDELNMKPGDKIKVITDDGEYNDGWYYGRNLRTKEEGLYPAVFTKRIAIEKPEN

T6: Myo5 SH3 (MYO5_YEAST), Q04439
T6 chain: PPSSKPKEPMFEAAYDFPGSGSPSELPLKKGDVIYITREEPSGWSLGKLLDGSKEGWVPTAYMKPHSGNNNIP


Columns and labels:
Experiment in all cases: SPOT array
[1] = biological target: T1, Yfr024 SH3 (LSB3_YEAST), P43603
[2] = biological target: T2, Boi2 SH3 (BOI2_YEAST), P39969
[3] = biological target: T3, Rvs167 SH3 (RV167_YEAST), P39743
[4] = biological target: T4, Yhr016c SH3 (YSC84_YEAST), P32793
[5] = biological target: T5, Boi1 SH3 (BOI1_YEAST), P38041
[6] = biological target: T6, Myo5 SH3 (MYO5_YEAST), Q04439
[7] = biological target: Sho1 SH3 (SHO1_YEAST), P40073
Chain of Sho1 SH3 (SHO1_YEAST), P40073 (P40073 295-366): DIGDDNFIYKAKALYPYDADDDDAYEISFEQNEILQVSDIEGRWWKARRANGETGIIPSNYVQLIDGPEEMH

Row | normalised SPOT signal, Boehringer light units (BLU); mean over the file's lines of this peptide [1] | normalised SPOT signal, Boehringer light units (BLU); mean over the file's lines of this peptide [2] | normalised SPOT signal, Boehringer light units (BLU); mean over the file's lines of this peptide [3] | normalised SPOT signal, Boehringer light units (BLU); mean over the file's lines of this peptide [4] | normalised SPOT signal, Boehringer light units (BLU); mean over the file's lines of this peptide [5] | normalised SPOT signal, Boehringer light units (BLU); mean over the file's lines of this peptide [6] | normalised SPOT signal, Boehringer light units (BLU); mean over the file's lines of this peptide [7] | Binder
1 | 2300 | 688 | 1200 | 1050 | 555 | 155 | 149 | MRRSKDAPIEPPKY [YOR346W 669-682]
2 | 1090 | 128 | 377 | 262 | 30.9 | 251 | 59.6 | MLFMKGSPSEPKSG [YDR098C 199-212]
3 | 595 | 50 | 368 | 128 | 57.3 | 171 | 35 | MLNSKHYPYIPVAN [YBR096W 107-120]
4 | 938 | 133 | 145 | 615 | 132 | 123 | 231 | MKAYRANPPLPIDS [YDR104C 798-811]
5 | 1750 | 104 | 243 | 168 | 1020 | 268 | 155 | MSWSKERPESPLSR [YDR265W 311-324]
6 | 475 | 31.4 | 30.8 | 77.5 | 41.3 | 91.4 | 30.7 | MDMDRNVPLAPNLN [YJR066W 21-34]
7 | 466 | 55.2 | 187 | 213 | 1210 | 596 | 186 | MTVPRNRPMAPFGT [YLR064W 1-14]
8 | 733 | 50.6 | 251 | 242 | 146 | 99.4 | 19.1 | MGLNKDVPHSPESL [YPL111W 171-184]
9 | 716 | 50.2 | 153 | 126 | 898 | 154 | 44.8 | MQSKKEDPNRPKNL [YMR241W 242-255]
10 | 489 | 23 | 65.7 | 83.4 | 80.9 | 307 | 24500 | MPNLKRLPIPPLQD [YAR035W 1-14]
11 | 2100 | 74.3 | 196 | 473 | 3140 | 222 | 34.3 | MDKFRIPPKSPNIE [YDR017C 929-942]
12 | 404 | 76.8 | 181 | 60.7 | 37.8 | 147 | 15.9 | MTQPKKNPMEPKTD [YDL148C 252-265]
13 | 394 | 31.6 | 137 | 40.5 | 1110 | 416 | 142 | MKPQKIAPKFPGTV [YDR091C 417-430]
